These results are taken from the DeepSol protein solubility set.

This data set in a line: soluble on expression in E. coli; label from the status in PepcDB or PDB records.
Take “SAAPRVFPLSCAVQQYAWGKMGSNSEVARLLASSDPLAQIAEDKPYAELWMGTHPRGDAKILDNRISQKTLSQWIAENQDSLGSKVKDTFNGNLPFLFKVLSVETPLSIQAHPNKELAEKLHLQAPQHYPDANHKPEMAIALTPFQGLCGFRPVEEIVTFLKTAAGNNMEDIFGELLLQLHQQYPGDIGCFAIYFLNLLTLKPGEAMFLEANVPHAYLKGDCVECMACSDNTVRAGLTPKFIDVPTLCEMLSYTPSSSKDRLFLPTRSQEDPYLSIYDPPVPDFTIMKTEVPGSVTEYKVLALDSASILLMVQGTVIASTPTTQTPIPLQRGGVLFIGANESVSLKLTEPKDLLIFRACCLL”: the “soluble on expression in E. coli” value is reported as “soluble”.

In the case of “MGSDKIHHHHHHMKESLRREYAPVKDLKPDDHIKMVQDIFSTITGKYDFLNHLLSFRRDVAWRRFAARKMHFSVTRRYLDVATGTADLALEVARRYPEVQVIGVDFVLEMLEKAVEKSARRDKIRDRVHFVQADALALPFADASFDVVGIAFGIRNIPGRLGALREFSRVLVDGGQVVVLEMQSPEQKMLRPLCTFYLRHVLPRLARRFTRNPAAYLYLADSILHFPSSDRFSGMMRDAGFADVRNYPLTLGITRLYVGRKGQ”, the “soluble on expression in E. coli” value is listed as “not soluble”.

For “AHHHHHHGSGRIISIVSGKGGTGKTTVTANLSVALGDRGRKVLAVDGDLTMANLSLVLGVDDPDVTLHDVLAGEANVEDAIYMTQFDNVYVLPGAVDWEHVLKADPRKLPEVIKSLKDKFDFILIDCPAGLQLDAMSAMLSGEEALLVTNPEISCLTDTMKVGIVLKKAGLAILGFVLNRYGRSDRDIPPEAAEDVMEVPLLAVIPEDPAIREGTLEGIPAVKYKPESKGAKAFVKLAEEIEKLAGLKARVMY”, the “soluble on expression in E. coli” value is “not soluble”.

Consider “SAEKQAGLVGEPDPEGSSPGTSESWNYDSNCVFCRVAAGQEPKTELFHCENEDLVCFKDIKPAALYHYLVVPKKHIGSCKDLNKDHIEMVESMVAAGKTMLERNNFTDFTDVRMGFHVPPFCSISHLHLHVIAPVKEFGFLSKLVYRQDSYWFVTVDYLLEKLRK”, for which the “soluble on expression in E. coli” value is given as “soluble”.

For the sequence “MWIPSKLTRPGRLHNAIVRPRVLDLLQQAPYYKLVLFRSPAGYGKTTMAAQWLSDKPNVGWYSIDDSDNDGFRFVNYLLQALNKATNFSCSNAQKLAEKRQISSLRSLFSEVFAEMADFHQECYVVLDDYHLITNDEIHESMRFFLKHMPDNLTVVVTSRAAPPLGTANLRVRDLMIEIGNEMLAFDTEETTRFFNQRIADGIDEDMANSLRTYVEGWPSAMQLIALQAQHQNRTLAQTVESVSQFNHAHLWDYLVEEVFDLLDHETRHFLMQVSVLDHFNDELVFALTQREDALGLIESLNRYGLFIYPLEGEHNWFRFHNLFGEFLSHERQARIPQQEKDLHRNAAVAWLQQKSPHQAIHHAQKSNDKDLVVEILNEFGWKMFNQGELSTLEHAINKLDAELLFSHPKLTMLRAWLAQSQHRYNQVGQLLEEAEEEHKKRNIELDIHYQGQA”, the “soluble on expression in E. coli” value is reported as “not soluble”.

“MGKLAFLFPGQGSQAVGMGKQLAENNKEVANVFAKADEVLQDSLSEVIFEGSQEKLTLTTNAQPALLTTSFAILTALKEYDITPDFVAGHSLGEYSALVAAGALTFEDAVYAVRKRGEYMEEAVPGGEGAMAAILGADPHMLKRVTEEVTGEGYAVQIANMNSTKQIVISGTKQGVEIASQRAKENGAKRAIPLKVSGPFHSALMKPAAEKFQSVLNEITIQDTNIPVIANVTADVITSGAHIQEKLIEQLYSPVLWYPSIEYMVNQGVDTFIEIGPGKVLAGLMKSIDSSVKAYAIYDEETLKDTISNLRGEN”: the “soluble on expression in E. coli” value is “not soluble”.

As to “MSLYSIIDIETTGGHASGNRIIEIAIYKFDGEKITDTYQTLINPERRIPVFITSLTGIDTEMVADAPVFADVAREITDFTRDSVFVAHNVNFDYTFVKKELQALNMPYNLPKLCTVRLSRKIFPGLPSYSLGNLCGSLGIDVQNRHRAAGDAEATVRLLNKLLLNDTEGFIPKSLKKNSKETLLPANLPREQFDALPETFGVYYFHDHKGKVIYVGKANNIKKRVISHFSGKQQNQKSQQFMQAIYGLSYEVCGSELLSLLLESHEIKKYFPVYNSIQKFGEKNYGIYQYEDNAGFIRLSIAKVNKLQHPLISFRYISEARTFLLEKVRTFQLCHRRSGLQTAPCSDVELCTACKGTTRSTAYNVKMKRALATFEHPDHSYIIKQPGRTRDEYAVIVVEAGRYLGYAYIPADLSGSTIEELKPFVNRHPDNRDIQKILAMHQRKSMVIAVEGHHHHHH”, the “soluble on expression in E. coli” value is given as “not soluble”.

Regarding “MSLADLEEALLIIDSDEDVSRHMKEHLTSRGFHVVHCASVKCFTDLKAQVTPDIIIGDLTSDDIKSLYSLLKDVHPRPPIVIHSKRADAENILGALRSGASDYIVKPVADVAVLDEAIQRQIDQVRVYRENQQYRYDLELANKELRAGLEELQADQRAGRHVQMKMLPEREVEYGGIQFDHCIKPSLYLSGDFFDYFRLSSDKIAFYFADVSGHGASSAFVTVLLKNLSNRLQRNLRRQSSDDILYPDRFLKRVNAELLDTDLGKHLTMFAGVIDLQTRVLSYSMGAHFPMPVMSVNGVSRYLDGKGPPVGLFDDPVYPLYEEPLAPGFSLVICSDGLLEVINAKSLAEKEQALLETVQEARHTIPELEKAFGLRWITELPDDIAIVSIMETTEGHHHHHH”, the “soluble on expression in E. coli” value is “soluble”.

As to “MSDTPSTSSVFLPTWPTRRTDANLYPNGSTKSDELVLHDYGLEEIPMRYHIEQPEEDYDPQNVKKLDLTHNSFVILRGLTTFNNVSVLDVSFNSLSALPEDIGTLSSLTTLIARNNLLEHLPKGLQLLENLEHLYLSGNRLEYVPPVILTMRKLKTLHLGGNYIDSCPSNISVLTLLRVLYLGGNRLREIPASIGCLDELENLGLCDNILETIPSTLGDLHYLETLSLHNNRLRTLPTDILNLRRLQQLSLRNNPLVHSFVHNMDLAPPSLKELSGRTVRQNYHKVPNLDEILPSDLVAYLGSACQCVNPECQGVYFDARVEHIKFVDFCGKYRVPLMQFLCSPRCSAGVPSVDYDTSSESEEEIEPIMRRVLLG”, the “soluble on expression in E. coli” value is given as “not soluble”.

As for “MGSDKIHHHHHHQDGPLRIEITDGVIEPLPFAVPDFIADTPAAAQYATDIARVIAQDLVGSGLFREIPKVAYISPYTDFDAEVNFTDWKAINAQALIAGAVSLSGDRITVRFRGYDVFAGQELGAGLQLSGTTDGWRRIAHKVADTIYSRLTGEGGYFDSRVVFVSETGPKNDRKKRLAIMDYDGANVQYLTNSDAIVLAPRFSPTGDRVLYTSYESGFPQIHVLDVGRVQRRVLSAGNGSMSFAPRFAPNGQTIVYSQSQGGNTDLFSMDINSGNPQRLTSAPSIETAPSFSPDGSQIVFESDRSGTSQLYVMSASGGEAKRISFGQGRYGTPVWSPRGDYIAFTKQNAGRFHIGVMRTDGSEERLLTASFLDEGPTWSPNGRVIMFTRETQGASGQARLYSVDISGRNLKPVKTPDGASDPSWSPLQN”, the “soluble on expression in E. coli” value is on record as “not soluble”.

On to “GRRDNLIVGLDIGTTKICAIVGNVTEDGIDIVGIGTSPSRGMRKGVVINIESTVESIKKAVSEAELMAGCDIRSVYAGIAGGHIKGINSQGVIAIKNREVSSEDVKRVIDAAKAIAIPMDR”, for which the “soluble on expression in E. coli” value is listed as “not soluble”.

Consider “MSKAEFQKFHDEMKALKNAGKHDEFAKKFAAKDAVFIGPLHDPCTADEAAKLAQSDKMAALVKADFDVKIDEVTQIGDVVVERCSISAKLPTGDKNGWSLTVWVKEGGAWKIRNSCITFKAPIPQ”, for which the “soluble on expression in E. coli” value is “not soluble”.

In the case of “MEEMGSRSDTIMVASLNRETKEIKLVSVYRDTLLQLSDGTYNKANAAYAYGGEEEAVAMLNKNLDLNIEHYVSVDFSVLVHVIDALGGIDINVEEAENGMDIIPYLNNYVVEVIKNTGVDSAPFTQLGQQHLNGVQATAYARLRYGGGDDYKRTERQRQVLEQIAIKAQKAKLSTINKIIDKVFDNVKTNFTLTETIAYAKDVKSYIFGETQGFPYESTTADLDVGNSVVATDLASDVTKLHQFLFGENDYTPSSTVQSISEDISNSTYDTGESYDTEYDEYGYSQDYSGYDSGYTDNSYGTGGYQDSGYGDGSSGNGYTEDTGGDYVPPSDGGGTDSGSSDSNSQIPDTGTGDSGDTGGESLELEHHHHHH”, the “soluble on expression in E. coli” value was “soluble”.

Regarding “MGHHHHHHSHMKKLICISLYEDLSMTTYDLSKVDNAELIGIVENASEGTLFVFTCDRPNGSSVIMCPGGGFLKTNLENEGIDFAEWFTKLGITYIVFKYRMPHGNPDVPEQDTRLALKVVREKFPEFCDKLGVMGASIGGYLATFSATLLPDDEKPDFQILMYPVVSVDDRLTHFPCRERMFGHSYSPDKMEQYSPIEHITSGTPAAFIVAAADDAVVSPLNGIMYAARLQKADIPISLHIYPAGGHGFGYNDSFVYKQEWLQELGEWLAKL”, the “soluble on expression in E. coli” value was “soluble”.

“TTFTTRDGTQIYYKDWGSGQPIVFSHGWPLNADSWESQMIFLAAQGYRVIAHDRRGHGRSSQPWSGNDMDTYADDLAQLIEHLDLRDAVLFGFSTGGGEVARYIGRHGTARVAKAGLISAVPPLMLKTEANPGGLPMEVFDGIRQASLADRSQLYKDLASGPFFGFNQPGAKSSAGMVDWFWLQGMAAGHKNAYDCIKAFSETDFTEDLKKIDVPTLVVHGDADQVVPIEASGIASAALVKGSTLKIYSGAPHGLTDTHKDQLNADLLAFIKG”: the “soluble on expression in E. coli” value is “soluble”.

Consider “MAAKHVLFSTDARQKMLSGVNLLANAVKVTLGPKGRHVVLNKSYGAPTITKDGVSVAKEIELADKFENMGAQMLKQVASKANDEAGDGTTTATVLAQALINEGMKAVAAGMNPMDLKRGIDKAVSAAVEKLHQLAKPCSDTQSITQVGAISANSDHAIGEIIAQAMEKVGRNGVITVEEGQALQNELSVVEGMQFDRGYLSPYFINQPKAGCVELENPYVLLVDKKISHIRELLPILESVAKASRSLLIIAEDVDGDALATLVVNSMRGIIKVAAVKAPGFGEQRKAMLEDIAALTAGRVISEEIGLELEKVTLDDLGSAKKVTINKDNTTIVDGAAEPSALQDRIAQIQHQLEHTTSQYDRDKLQQRIAKLSGGVAVIKIGAATEVEMKEKKDRVDDALHATRAAVEEGIVAGGGVALLKIANELSNLQGDNDDQNVGIRIALRAMEEPLRQIAINAGDEASVIANQVKTGDEHYGYNAATGQFGNMLEMGILDPAKVTRSALQFAASIAGLMITTEAMVSEVDKESAA”, for which the “soluble on expression in E. coli” value was “not soluble”.

For “MGSDKIHHHHHHKVSEAEAAKLGTSLTPMGGEMAASADGSIPAWNGGITAAPAGYKKGDHHPDPYSADKVEYTVTKANLEQYKSLLTPGQIKLFELYPDTFKMNVYKTQRSASAPQWVYDATKANASRAELVQGGNGVVGAAVGIPFPIPQNGLEAIWNHILRFRGVDIETQRNQAAPAKGGGYTLVELSEQLRFEYSQPDMTPEKLKENNTLALFKQVVTQPARLAGTALLVKETLDQEALPRQAWTYNTGQRRVRKAPNVAFDTPGTVSDGLRTTDDYDMFNGSPSRYNWELVGKKEILIPYNDYKLHSDKVKYDDILTPGHINPDLVRWEKHRVWEVKATLKDGMRHIYKTRVFFLDEDSWQVSATDMYDNRDELYRVAFAHGLNYYEVPAHWSTLEVFHDLQSRRYLAIGLDNEGSMYDFDAKLSASDFTPDALRREGVR”, the “soluble on expression in E. coli” value is reported as “not soluble”.

Regarding “MGSSHHHHHHSSGLVPRGSHMSISRFGVNTENEDHLAKELEDLNKWGLNIFNVAGYSHNRPLTCIMYAIFQERDLLKTFRISSDTFITYMMTLEDHYHSDVAYHNSLHAADVAQSTHVLLSTPALDAVFTDLEILAAIFAAAIHDVDHPGVSNQFLINTNSELALMYNDESVLENHHLAVGFKLLQEEHCDIFMNLTKKQRQTLRKMVIDMVLATDMSKHMSLLADLKTMVETKKVTSSGVLLLDNYTDRIQVLRNMVHCADLSNPTKSLELYRQWTDRIMEEFFQQGDKERERGMEISPMCDKHTASVEKSQVGFIDYIVHPLWETWADLVQPDAQDILDTLEDNRNWYQSMIPQSPSPPLDEQNRDCQGLMEKFQFELTLDEEDSEGPEKEGEGHS”, the “soluble on expression in E. coli” value is “soluble”.
